Experimental data as given in publication PMC9188544, “Mechanism of glycogen synthase inactivation and interaction with glycogenin” (Nature Communications, 2022).

What was measured:
Assay in all cases: co-purification (HisTrap, TEV cleavage, Ni subtraction, Superdex200 gel filtration); GS WT or mutant co-expressed with GN(Y195F) in insect cells, both with N-terminal His6-TEV; lysate loaded on the HisTrap column
Details in all cases: partners not purified
[1] = molecular target: T1, human glycogen synthase 1 (GS1), wild type, pFastBac construct with N-terminal His6-TEV, co-expressed with … (human, UniProt P13807 1-737, phosphorylation at S8, S641 and S641/S645 probed by immunoblot (Fig. 4b))
T1 construct: glycogen synthase 1 (muscle), human, encoded by GYS1, cDNA NM 002103; also called GS WT; WT GS; not shown: His6, N-terminal, cleaved
T1 sequence (looked up): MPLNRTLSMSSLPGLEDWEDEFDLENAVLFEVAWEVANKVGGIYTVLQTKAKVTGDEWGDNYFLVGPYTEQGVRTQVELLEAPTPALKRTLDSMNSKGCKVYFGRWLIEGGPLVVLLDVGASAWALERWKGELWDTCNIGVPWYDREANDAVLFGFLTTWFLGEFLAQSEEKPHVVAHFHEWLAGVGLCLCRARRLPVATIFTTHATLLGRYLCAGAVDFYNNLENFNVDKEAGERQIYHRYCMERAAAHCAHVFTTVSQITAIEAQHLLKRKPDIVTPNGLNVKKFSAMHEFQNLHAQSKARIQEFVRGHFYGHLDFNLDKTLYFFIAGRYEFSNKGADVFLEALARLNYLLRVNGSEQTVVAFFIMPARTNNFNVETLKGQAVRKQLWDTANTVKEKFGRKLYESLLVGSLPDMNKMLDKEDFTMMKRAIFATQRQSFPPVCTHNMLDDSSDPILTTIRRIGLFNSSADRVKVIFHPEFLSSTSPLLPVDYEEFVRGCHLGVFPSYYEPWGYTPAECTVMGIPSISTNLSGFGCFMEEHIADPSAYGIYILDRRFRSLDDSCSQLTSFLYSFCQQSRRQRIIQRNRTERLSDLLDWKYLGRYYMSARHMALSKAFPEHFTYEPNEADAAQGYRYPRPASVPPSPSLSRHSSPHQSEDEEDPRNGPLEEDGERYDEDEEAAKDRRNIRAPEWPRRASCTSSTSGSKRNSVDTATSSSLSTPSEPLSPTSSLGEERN

[2] = molecular target: T2, human glycogen synthase 1 (GS1) R588A + R591A (human, UniProt P13807 1-737, R588A | R591A, phosphorylation at S8, S641 and S641/S645 probed by immunoblot (Fig. 4b))
T2 construct: glycogen synthase 1 (muscle), human, encoded by GYS1, cDNA NM 002103; also called GS R588A + R591A double mutant; not shown: His6, N-terminal, cleaved
T2 sequence (looked up): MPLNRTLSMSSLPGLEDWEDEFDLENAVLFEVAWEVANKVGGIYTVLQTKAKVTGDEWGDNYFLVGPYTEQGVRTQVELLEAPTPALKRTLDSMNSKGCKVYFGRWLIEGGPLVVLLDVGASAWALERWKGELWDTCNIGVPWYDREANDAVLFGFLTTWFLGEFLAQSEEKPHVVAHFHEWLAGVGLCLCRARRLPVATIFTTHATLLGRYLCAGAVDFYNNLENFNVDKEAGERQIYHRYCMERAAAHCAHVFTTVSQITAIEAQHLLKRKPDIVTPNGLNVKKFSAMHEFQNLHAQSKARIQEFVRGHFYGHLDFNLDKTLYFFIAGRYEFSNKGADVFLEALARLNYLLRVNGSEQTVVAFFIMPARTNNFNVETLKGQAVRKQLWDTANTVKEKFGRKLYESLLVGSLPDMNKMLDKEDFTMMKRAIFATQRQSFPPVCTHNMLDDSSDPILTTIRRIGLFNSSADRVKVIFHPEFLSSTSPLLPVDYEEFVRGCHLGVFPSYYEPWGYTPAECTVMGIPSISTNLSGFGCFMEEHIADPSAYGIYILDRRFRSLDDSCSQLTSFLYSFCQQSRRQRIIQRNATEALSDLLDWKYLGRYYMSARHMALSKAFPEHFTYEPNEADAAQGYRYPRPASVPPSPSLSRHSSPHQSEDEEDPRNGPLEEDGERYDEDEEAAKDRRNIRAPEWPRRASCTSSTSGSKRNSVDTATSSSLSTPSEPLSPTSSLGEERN

[3] = molecular target: T3, human glycogen synthase 1 (GS1) H610E (human, UniProt P13807 1-737, H610E, phosphorylation at S8, S641 and S641/S645 probed by immunoblot (Fig. 4b))
T3 construct: glycogen synthase 1 (muscle), human, encoded by GYS1, cDNA NM 002103; also called GS H610E; not shown: His6, N-terminal, cleaved
T3 sequence (looked up): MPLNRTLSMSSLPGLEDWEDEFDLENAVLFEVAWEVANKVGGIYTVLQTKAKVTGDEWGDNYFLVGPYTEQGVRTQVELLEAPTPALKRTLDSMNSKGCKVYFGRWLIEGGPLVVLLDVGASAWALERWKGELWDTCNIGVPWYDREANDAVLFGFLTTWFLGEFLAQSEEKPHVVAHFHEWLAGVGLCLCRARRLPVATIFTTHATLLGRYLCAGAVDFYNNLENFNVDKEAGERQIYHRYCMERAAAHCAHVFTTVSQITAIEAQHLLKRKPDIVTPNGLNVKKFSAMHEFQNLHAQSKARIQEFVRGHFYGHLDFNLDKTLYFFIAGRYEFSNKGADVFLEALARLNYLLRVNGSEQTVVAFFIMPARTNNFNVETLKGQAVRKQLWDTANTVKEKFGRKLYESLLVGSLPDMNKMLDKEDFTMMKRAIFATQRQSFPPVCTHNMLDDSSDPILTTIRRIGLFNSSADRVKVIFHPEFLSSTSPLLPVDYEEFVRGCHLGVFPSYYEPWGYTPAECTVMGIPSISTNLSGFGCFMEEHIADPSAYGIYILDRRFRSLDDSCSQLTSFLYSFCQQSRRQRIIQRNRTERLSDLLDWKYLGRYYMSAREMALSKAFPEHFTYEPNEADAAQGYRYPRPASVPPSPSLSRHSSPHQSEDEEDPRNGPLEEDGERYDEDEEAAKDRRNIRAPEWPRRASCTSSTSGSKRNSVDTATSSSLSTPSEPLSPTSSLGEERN

Measured: binding result

B1: human glycogenin 1 (GN1) Y195F, full length, non-glucosylated (enzyme, UniProt P46976-2 1-333, looked up)
chain: MTDQAFVTLTTNDAYAKGALVLGSSLKQHRTTRRLVVLATPQVSDSMRKVLETVFDEVIMVDVLDSGDSAHLTLMKRPELGVTLTKLHCWSLTQYSKCVFMDADTLVLANIDDLFDREELSAAPDPGWPDCFNSGVFVYQPSVETYNQLLHLASEQGSFDGGDQGILNTFFSSWATTDIRKHLPFIYNLSSISIFSYLPAFKVFGASAKVVHFLGRVKPWNYTYDPKTKSVKSEAHDPNMTHPEFLILWWNIFTTNVLPLLQQFGLVKDTCSYVNVEDVSGAISHLSLGEIPAMAQPFVSSEERKERWEQGQADYMGADSFDNIKRKLDTYLQ
notes: glycogenin 1, human, encoded by GYG1, cDNA NM 001184720, full length; expected ~37.5 kDa; the C-terminal GN34 region is modelled as residues 300-332, which fits the 333-residue isoform; Cloned in pFL (with untagged GS) and in pFastBac (co-infected with His6-TEV-GS WT or mutants); Both carry an N-terminal His6 tag and a cleavable site, so they are treated as one molecule; also called GN(Y195F); GN …
binds: all assays above
